Laboratory results from PMC6689050, “A switch element in the autophagy E2 Atg3 mediates allosteric regulation across the lipidation cascade” (Nature Communications, 2019).

How the values were obtained:
[1] = molecular target: T1, Atg3^∆FR (yeast Atg3 lacking the flexible region) (S. cerevisiae, UniProt P40344 1-310, ∆FR (FR, residues 85–159)); assay: NMR
T1 sequence: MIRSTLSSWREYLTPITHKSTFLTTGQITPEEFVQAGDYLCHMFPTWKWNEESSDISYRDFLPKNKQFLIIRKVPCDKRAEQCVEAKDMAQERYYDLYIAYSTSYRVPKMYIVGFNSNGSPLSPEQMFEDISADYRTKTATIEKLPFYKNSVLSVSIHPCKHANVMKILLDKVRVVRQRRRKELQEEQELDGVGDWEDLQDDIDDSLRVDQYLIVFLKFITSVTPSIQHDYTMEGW

[2] = molecular target: T2, Atg3^FR (residues 86–159), the intrinsically disordered flexible region of yeast Atg3 (S. cerevisiae, UniProt P40344 86-159); assay: NMR; average over E123IR residues; Atg12–Atg5 with Atg16
T2 chain: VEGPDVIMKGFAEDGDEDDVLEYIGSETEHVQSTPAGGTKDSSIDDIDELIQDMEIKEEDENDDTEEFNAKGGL

[3] = molecular target: T3, Atg12–Atg5 conjugate (His-Atg12 100–186 conjugated to Atg5 1–284), minimal yeast autophagy E3 (S. cerevisiae, UniProt P38316 100-186; Q12380 1-284, conjugated to Atg5 (Atg12–Atg5 conjugate) | conjugated to Atg12 (Atg12–Atg5 conjugate)); assay: NMR titration; 0.1 mM 15N-labeled Atg3^FR 86–159 titrated with 0–150 µM unlabeled Atg12–Atg5; [15N,1H] TROSY; 25 °C, 20 mM MES pH 6.5, 100 mM NaCl, 10% D2O; settings: both partners purified
T3 construct: Atg12, S. cerevisiae, residues 100–186; Atg5, S. cerevisiae, residues 1–284, untagged; Covalent conjugate formed in E. coli by co-expressed Atg7 and Atg10; No removal of the His tag is told; also called His-Atg12–Atg5; minimal yeast E3; source: E. coli BL21, co-expressed with Atg7 1–630 and Atg10; purified (Ni-NTA, cation exchange); not shown: His6, N-terminal, kept
T3 sequence (looked up) 1: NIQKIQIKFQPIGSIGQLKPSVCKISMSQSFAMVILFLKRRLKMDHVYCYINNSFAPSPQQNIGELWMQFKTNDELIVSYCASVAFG
T3 sequence (looked up) 2: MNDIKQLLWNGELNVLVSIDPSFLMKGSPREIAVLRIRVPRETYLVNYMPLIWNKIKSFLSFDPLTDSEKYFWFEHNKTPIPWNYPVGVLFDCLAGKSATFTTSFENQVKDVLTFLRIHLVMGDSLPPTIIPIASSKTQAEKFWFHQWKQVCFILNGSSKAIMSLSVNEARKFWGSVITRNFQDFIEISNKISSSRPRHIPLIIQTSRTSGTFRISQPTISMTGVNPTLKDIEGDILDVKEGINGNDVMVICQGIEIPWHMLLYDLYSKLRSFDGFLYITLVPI

[4] = molecular target: T1, Atg3^∆FR (yeast Atg3 lacking the …); assay: NMR; average over E123IR residues
[5] = molecular target: T3, Atg12–Atg5 conjugate (His-Atg12 100–186 …); assay: SEC; purified His-Atg12–Atg5 combined with Atg16 1–46 in a 1:2 molar ratio, Superdex-200; peak fractions of the complex harvested; settings: both partners purified

B1: Atg3^FR 86–159 mutant I132D, L135D, I136D (printed elsewhere as I136R) (domain or fragment)
chain: VEGPDVIMKGFAEDGDEDDVLEYIGSETEHVQSTPAGGTKDSSIDDDDEDDQDMEIKEEDENDDTEEFNAKGGL
For B1, the Kd [1] was 994 µM.

B2: Atg12–Atg5 conjugate (His-Atg12 100–186 conjugated to Atg5 1–284), minimal yeast autophagy E3 (complex)
chain 1: NIQKIQIKFQPIGSIGQLKPSVCKISMSQSFAMVILFLKRRLKMDHVYCYINNSFAPSPQQNIGELWMQFKTNDELIVSYCASVAFG
chain 2: MNDIKQLLWNGELNVLVSIDPSFLMKGSPREIAVLRIRVPRETYLVNYMPLIWNKIKSFLSFDPLTDSEKYFWFEHNKTPIPWNYPVGVLFDCLAGKSATFTTSFENQVKDVLTFLRIHLVMGDSLPPTIIPIASSKTQAEKFWFHQWKQVCFILNGSSKAIMSLSVNEARKFWGSVITRNFQDFIEISNKISSSRPRHIPLIIQTSRTSGTFRISQPTISMTGVNPTLKDIEGDILDVKEGINGNDVMVICQGIEIPWHMLLYDLYSKLRSFDGFLYITLVPI
modifications: conjugated to Atg5 (Atg12–Atg5 conjugate) | conjugated to Atg12 (Atg12–Atg5 conjugate)
B2 gave a Kd [2] of 69 µM.

B3: Atg3^FR (residues 86–159), the intrinsically disordered flexible region of yeast Atg3 (domain or fragment, S. cerevisiae, UniProt P40344 86-159, looked up)
chain: VEGPDVIMKGFAEDGDEDDVLEYIGSETEHVQSTPAGGTKDSSIDDIDELIQDMEIKEEDENDDTEEFNAKGGL
notes: Atg3 (autophagy E2), S. cerevisiae, flexible region, residues 86–159; 15N-labelled (or 13C,15N-labelled) for NMR; The introduction gives the FR as residues 85–159, the construct is 86–159; also called Atg3^FR 86–159; holds the Atg3^E123IR element; source: purified
B3 was tested, and the binding result [3] was “binds” and the Kd [4] was 238 µM.

B4: Atg16 (residues 1–46) (domain or fragment, S. cerevisiae, UniProt Q03818 1-46, looked up)
chain: MGNFIITERKKAKEERSNPQTDSMDDLLIRRLTDRNDKEAHLNELF
notes: Atg16, S. cerevisiae, residues 1–46; also called Atg16 1–46; source: purified
B4: binds [5].
